{
  "source": "IntAct's records for PubMed 23629652",
  "molecular_target": "klk5_human KLK5 (UniProt Q9Y337)",
  "sequence (Q9Y337 whole entry)": "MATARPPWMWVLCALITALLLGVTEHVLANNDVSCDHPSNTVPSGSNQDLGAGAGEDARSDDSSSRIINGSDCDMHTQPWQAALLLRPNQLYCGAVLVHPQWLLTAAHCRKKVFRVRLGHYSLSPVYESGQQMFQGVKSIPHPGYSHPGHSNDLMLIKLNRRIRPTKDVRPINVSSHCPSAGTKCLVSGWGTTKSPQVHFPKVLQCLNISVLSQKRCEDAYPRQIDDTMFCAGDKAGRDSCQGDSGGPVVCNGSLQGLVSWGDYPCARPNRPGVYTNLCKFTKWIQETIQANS",
  "data": [
    {"substance": "Filaggrin (Homo sapiens), P20930 S3385H;Y3388H;Q3389H;S3391H;T3392H", "values": [
      {"measurement": "effect of a mutation on the interaction", "result": "disrupting interaction"}
    ]}
  ]
}
